Measurements reported in the supplement of paper PMC10126150.
± gives the standard deviation of the averaged measurements.
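Further: ATP exposure 15 min at 22 °C before imaging.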

What follows are sequences tested on ATP (assay: switch fluorescence ratio, 500 uM ATP over buffer (Cy3 cluster intensity, sum of 5 cycles each) (fold (ratio)); higher = stronger signal-on switching upon ATP binding; sequences stand for … in TCGTCGGCAGCGTCAGATGTGTATAAGAGACAGTTTTTTTTTTTTTTTTTTTTTTTTT…TC). Settings: aptamer strand: ATP DNA aptamer (quencher-CACCTGGGGGAGTATTGCGGAGGAAGG + anchor), 100 nM annealed; ATP concentration: 500 uM.
In short: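 Five buffer/ATP imaging cycles were run on Cy3-labelled switching-strand clusters on a modified Illumina MiSeq flow-cell, with NaOH stripping and re-annealing between cycles. In each cycle, clusters annealed to 100 nM quencher-labelled ATP aptamer were imaged in selection buffer, then after 15 min with 500 uM ATP at 22 °C. Per cluster, the fluorescence ratio is summed target-cycle over summed buffer-cycle Cy3 intensity, averaged per switch-domain sequence. Only clusters within 100-1000 RFU were kept.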
For GCTTACGGGA, the switch fluorescence ratio was 1.028 ± 0.0016.
AATTAAGGCC showed a switch fluorescence ratio of 0.992 ± 0.026.
In the case of GCTCAAGCCT, the switch fluorescence ratio is reported as 1.06 ± 0.028.
ATAAGCTTCT was tested, and the switch fluorescence ratio was 1.09 ± 0.073.
With CGGCTGTACG the switch fluorescence ratio was 1.07 ± 0.022.
With TTTATTGCGT the switch fluorescence ratio was 1.01 ± 0.048.
In the case of TGCGCCAACT, the switch fluorescence ratio is reported as 1.06 ± 0.011.
With CAGGCAGGAC the switch fluorescence ratio was 2.24 ± 0.17.
In the case of TAACTGTGGA, the switch fluorescence ratio is reported as 1.08 ± 0.085.
Work on TCGGGTCCGT yielded a switch fluorescence ratio of 0.982 ± 0.027.
Work on GATTTGAGCG yielded a switch fluorescence ratio of 0.9852 ± 0.0046.
In the case of TCATGACAGC, the switch fluorescence ratio is reported as 1 ± 0.034.
AGGCGCTTAT was tested, and the switch fluorescence ratio was 1.33 ± 0.55.
AATATTCTGT gave a switch fluorescence ratio of 0.9923 ± 0.0029.
For ACTGAGGCCG, the switch fluorescence ratio was 1.04 ± 0.16.
In the case of TTAACGGTCT, the switch fluorescence ratio is reported as 1.04 ± 0.027.
For GTGATGGAAA, the switch fluorescence ratio was 0.964 ± 0.016.
CAATTGTTCC showed a switch fluorescence ratio of 1.04 ± 0.021.
TATAAGACTA showed a switch fluorescence ratio of 1.02 ± 0.021.
CATTAGGCTG gave a switch fluorescence ratio of 1.02 ± 0.015.
With TAATGGGACG the switch fluorescence ratio was 1.08 ± 0.14.
Work on GGTCTGGTGC yielded a switch fluorescence ratio of 1.031 ± 0.0048.
TTAGGCGGTT gave a switch fluorescence ratio of 1 ± 0.017.
ATTGTAGGC was tested, and the switch fluorescence ratio was 1.01 ± 0.029.
TGACGTGCGT showed a switch fluorescence ratio of 1.02 ± 0.012.
CAAGGACAGC showed a switch fluorescence ratio of 1.05 ± 0.047.
AGGGGTAAGG showed a switch fluorescence ratio of 1.03 ± 0.033.
Work on GTTGTGTTGT yielded a switch fluorescence ratio of 0.979 ± 0.028.
With TTGGGGTTTC the switch fluorescence ratio was 0.998 ± 0.033.
Work on TGGCGGTGGT yielded a switch fluorescence ratio of 0.978 ± 0.017.
For GGTTGTCATG, the switch fluorescence ratio was 0.967 ± 0.032.
In the case of TAGTCGGAGA, the switch fluorescence ratio is reported as 1.01 ± 0.019.
Sequence TTTTTTATTA has a switch fluorescence ratio of 0.986 ± 0.023.
Sequence TGGTCCAGTG has a switch fluorescence ratio of 1.03 ± 0.089.
TAGAGGGTTT showed a switch fluorescence ratio of 1.02 ± 0.045.
In the case of TTTTGTATCG, the switch fluorescence ratio is reported as 0.948 ± 0.052.
Sequence TAAAAGAGGA has a switch fluorescence ratio of 0.9974 ± 0.0058.
Work on TTAGGCTAAA yielded a switch fluorescence ratio of 1.002 ± 0.0074.
TTTTCGGACA was tested, and the switch fluorescence ratio was 1.033 ± 0.0027.
GTTTTTGGAG gave a switch fluorescence ratio of 0.98219 ± 0.00097.
In the case of CGACGGGCAG, the switch fluorescence ratio is reported as 1.01 ± 0.042.
GGGGCAAAGC gave a switch fluorescence ratio of 0.96 ± 0.085.
GAGGGCTTTG showed a switch fluorescence ratio of 1 ± 0.031.
Sequence ATTTGTTATC has a switch fluorescence ratio of 0.98096 ± 8.4e-05.
For ATATTTGATA, the switch fluorescence ratio was 1.01 ± 0.039.
Sequence GCATTGGGGC has a switch fluorescence ratio of 0.9893 ± 0.0098.
GCTTGTACGT was tested, and the switch fluorescence ratio was 1.021 ± 0.0096.
Sequence GTTTTAAAGT has a switch fluorescence ratio of 1.02 ± 0.017.
TTAAAGATGG showed a switch fluorescence ratio of 1 ± 0.045.
GAACCGTAAA gave a switch fluorescence ratio of 1.128 ± 0.0073.
Sequence TTTATTACCC has a switch fluorescence ratio of 1.02 ± 0.025.
For ATCTTTAGTA, the switch fluorescence ratio was 1 ± 0.014.
TGAGGTTTAG showed a switch fluorescence ratio of 1.02 ± 0.028.
Sequence AATGCCTGGT has a switch fluorescence ratio of 0.984 ± 0.022.
TCTTGGGTTT showed a switch fluorescence ratio of 0.992 ± 0.012.
In the case of CGGCCGAGGA, the switch fluorescence ratio is reported as 0.978 ± 0.01.
For TGATAATTTG, the switch fluorescence ratio was 1.006 ± 0.01.
CGGTTGCGGA gave a switch fluorescence ratio of 0.995 ± 0.051.
For TTTTAGGTGG, the switch fluorescence ratio was 0.98 ± 0.067.
GGAGGGGGCA was tested, and the switch fluorescence ratio was 0.9654 ± 0.0011.
GGGGCAGCCG showed a switch fluorescence ratio of 1.01 ± 0.059.
For AGTAGCAAG, the switch fluorescence ratio was 1.08 ± 0.036.
Work on ATTGTATGGT yielded a switch fluorescence ratio of 0.956 ± 0.012.
With ATGCTTAGTT the switch fluorescence ratio was 1.03 ± 0.051.
Sequence TTTGCATGCA has a switch fluorescence ratio of 1.03 ± 0.02.
With GGTGTTGGG the switch fluorescence ratio was 1.01 ± 0.019.
Sequence AAGAGAGTAT has a switch fluorescence ratio of 0.992 ± 0.0083.
Sequence GCGGTAGTAC has a switch fluorescence ratio of 1.14 ± 0.013.
For ATTTTCGGCG, the switch fluorescence ratio was 1.001 ± 0.0054.
AACAGGGAAG was tested, and the switch fluorescence ratio was 1.02 ± 0.012.
With AAATCAACCC the switch fluorescence ratio was 0.9885 ± 0.0083.
Sequence TATATGATG has a switch fluorescence ratio of 1.0194 ± 0.00035.
Sequence AGAGGAAGGT has a switch fluorescence ratio of 1.03 ± 0.046.
Work on GTATAAAACT yielded a switch fluorescence ratio of 0.9986 ± 0.0087.
TTTGTATTGT showed a switch fluorescence ratio of 1.019 ± 0.0089.
For TTACCCCAGT, the switch fluorescence ratio was 1.21 ± 0.036.
TGGGATTAGT gave a switch fluorescence ratio of 0.9868 ± 0.00058.
Sequence ACGGGGGATG has a switch fluorescence ratio of 0.995 ± 0.025.
AAGAGGTATA was tested, and the switch fluorescence ratio was 1.01 ± 0.032.
Sequence CGTTCGATGC has a switch fluorescence ratio of 1.21 ± 0.042.
Sequence GGTCTACATT has a switch fluorescence ratio of 1.01 ± 0.032.
GCGGCACAAT showed a switch fluorescence ratio of 1.05 ± 0.013.
CGAGTCCAGG showed a switch fluorescence ratio of 6.48 ± 0.097.
TTGGAAGGAC gave a switch fluorescence ratio of 1.03 ± 0.013.
Work on TGGGGTGTTT yielded a switch fluorescence ratio of 0.983 ± 0.045.
In the case of GGGGGGGCTC, the switch fluorescence ratio is reported as 0.965 ± 0.035.
GGCCTCTTGG gave a switch fluorescence ratio of 1 ± 0.011.
TTCGTAGCAG gave a switch fluorescence ratio of 1.23 ± 0.063.
TCTGAGGTAT showed a switch fluorescence ratio of 1.03 ± 0.034.
Sequence TTCAGTGGTG has a switch fluorescence ratio of 0.965 ± 0.053.
Sequence AGGGGAGGAG has a switch fluorescence ratio of 0.974 ± 0.017.
Work on CACGGGATGC yielded a switch fluorescence ratio of 1.58 ± 0.12.
GAGCAGTGCA showed a switch fluorescence ratio of 1.03 ± 0.037.
CAGACGGTAC was tested, and the switch fluorescence ratio was 3.08 ± 0.089.
In the case of GATGGGGATG, the switch fluorescence ratio is reported as 0.9677 ± 0.0045.
In the case of CGGTCATAAG, the switch fluorescence ratio is reported as 0.982 ± 0.043.
GCTTTGAATT gave a switch fluorescence ratio of 0.985 ± 0.017.
For AGAGCTAAGT, the switch fluorescence ratio was 0.982 ± 0.027.
Sequence CCGTGTTTCT has a switch fluorescence ratio of 0.9916 ± 0.0033.
With TTCGGGAGTG the switch fluorescence ratio was 0.985 ± 0.02.
Sequence GGGAGGGAGC has a switch fluorescence ratio of 1.02 ± 0.06.
In the case of ATAGGGGGTT, the switch fluorescence ratio is reported as 0.98 ± 0.022.
In the case of AAATATAGTG, the switch fluorescence ratio is reported as 0.991 ± 0.025.
TTTCATCGTA showed a switch fluorescence ratio of 0.99 ± 0.049.
Work on ATGGACTAGG yielded a switch fluorescence ratio of 1.02 ± 0.022.
TAGTTTTGAT gave a switch fluorescence ratio of 0.963 ± 0.029.
AGTCCTGGAG was tested, and the switch fluorescence ratio was 0.993 ± 0.044.
In the case of GAGTCTTTGG, the switch fluorescence ratio is reported as 0.973 ± 0.021.
For TTTTGAGAGG, the switch fluorescence ratio was 0.983 ± 0.036.
In the case of TCACAGCCTG, the switch fluorescence ratio is reported as 0.9973 ± 0.0019.
ATTCATGTGT was tested, and the switch fluorescence ratio was 1.02 ± 0.026.
In the case of ATTGCATTCA, the switch fluorescence ratio is reported as 0.9949 ± 0.0041.
In the case of TGGGACGGGC, the switch fluorescence ratio is reported as 0.98 ± 0.049.
AGATTATTTT showed a switch fluorescence ratio of 1.01 ± 0.032.
For ACTTGATTGT, the switch fluorescence ratio was 1.02 ± 0.094.
CTGATTCAGA gave a switch fluorescence ratio of 0.98 ± 0.019.
GTTTTATGCT showed a switch fluorescence ratio of 1.01 ± 0.017.
TTGTGGTCCT gave a switch fluorescence ratio of 0.974 ± 0.029.
In the case of TATTTTTGGA, the switch fluorescence ratio is reported as 0.981 ± 0.043.
Sequence AATTGAAAAG has a switch fluorescence ratio of 0.982 ± 0.027.
Sequence TTTTCAGTTT has a switch fluorescence ratio of 1.022 ± 0.01.
AACGTAGATA was tested, and the switch fluorescence ratio was 1.042 ± 0.0098.
TGTATCGTCG showed a switch fluorescence ratio of 0.944 ± 0.023.
TGTTGGGCGG was tested, and the switch fluorescence ratio was 0.969 ± 0.026.
TTGAATTTTC gave a switch fluorescence ratio of 1.02 ± 0.061.
In the case of TGGAATATTC, the switch fluorescence ratio is reported as 1.04 ± 0.011.
GGGTCTTCGC was tested, and the switch fluorescence ratio was 0.991 ± 0.024.
AGTTGAAATA showed a switch fluorescence ratio of 0.9816 ± 0.0066.
With ATATCTTATG the switch fluorescence ratio was 0.964 ± 0.023.
Sequence GGTCCTAGTC has a switch fluorescence ratio of 0.946 ± 0.12.
GGGTTGAGGA was tested, and the switch fluorescence ratio was 1.01 ± 0.05.
For ACATCCTACT, the switch fluorescence ratio was 1.15 ± 0.041.
CTTTATATGG showed a switch fluorescence ratio of 0.96 ± 0.046.
With GGGGCTAACG the switch fluorescence ratio was 1.02 ± 0.03.
TTCGAAGGGT was tested, and the switch fluorescence ratio was 1.09 ± 0.1.
TTTGTTTGGC was tested, and the switch fluorescence ratio was 0.983 ± 0.019.
CGACGTGGGA gave a switch fluorescence ratio of 1.042 ± 0.0055.
For GTTTGGGTAA, the switch fluorescence ratio was 0.99 ± 0.037.
For ATGCGCAGAT, the switch fluorescence ratio was 1.046 ± 0.0063.
TGGGAAGGGG gave a switch fluorescence ratio of 0.998 ± 0.013.
Sequence AGGGGGGCTC has a switch fluorescence ratio of 0.98 ± 0.04.
With GGGGTTACGG the switch fluorescence ratio was 0.996 ± 0.062.
In the case of TTTTGGTGAG, the switch fluorescence ratio is reported as 0.972 ± 0.025.
In the case of TTGTTTGTTT, the switch fluorescence ratio is reported as 0.997 ± 0.035.
AACGTATGGG showed a switch fluorescence ratio of 1.03 ± 0.039.
TTGTAGGGCC showed a switch fluorescence ratio of 1.03 ± 0.022.
AGGCGGGGGT showed a switch fluorescence ratio of 1.018 ± 0.0094.
AGGGAAATAG gave a switch fluorescence ratio of 1.02 ± 0.023.
GCCTCAGGAT gave a switch fluorescence ratio of 0.996 ± 0.068.
With TTTATGATTT the switch fluorescence ratio was 1 ± 0.024.
TGGCGGGTCG gave a switch fluorescence ratio of 1.06 ± 0.079.
Work on GTCGTCTAAG yielded a switch fluorescence ratio of 0.973 ± 0.051.
In the case of CTAGATGCTT, the switch fluorescence ratio is reported as 1.012 ± 0.0096.
CTACGAGCTG showed a switch fluorescence ratio of 1.06 ± 0.021.
With ATAAGTGGTG the switch fluorescence ratio was 0.976 ± 0.036.
With GCTGCGGCAG the switch fluorescence ratio was 1.012 ± 0.0046.
For ACGGCCAAGG, the switch fluorescence ratio was 1.05 ± 0.031.
